Measured values as given in publication PMC3372094.

Target: calmodulin-binding domain of the original SK2 channel, SK2-a (UniProt P70604)
Experiment: ITC

UniProt P70604, sequence (P70604 396-487): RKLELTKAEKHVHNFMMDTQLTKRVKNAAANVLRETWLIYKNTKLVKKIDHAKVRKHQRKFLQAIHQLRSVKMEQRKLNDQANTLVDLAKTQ

dH of the first site (rising phase, two-site fit): -34.7 kcal/mol
Substance: calmodulin (rat) (from UniProt P0DP29 1-149) (natural protein; other documents disagree on this pair)
